Experimental findings from patent publication US20100285988A1 are described below.

The target in assay [1] is γ-secretase (human; HeLa cell membrane / solubilized HeLa membrane; endogenous in HEK293 cells) (human) (UniProt P49768). Briefly: cell-based or functional assay.
Assay [2] concerns the target γ-secretase (mouse; mouse brain membrane, N2A neuroblastoma cells) (mouse). As to the kind of experiment: cell-based or functional assay.

Where only a bound is given, the exact number is not on record here.

In assay [1], “recombinant βCTF with the Flemish mutation (A21G) (from UniProt P05067 672-770)” came in with a reaction rate of γ-secretase (Aβ40 production in vitro) relative to WT βCTF of 3 fold.
Take “αCTF-FLAG (recombinant α-secretase cleaved APP C-terminal fragment) (from UniProt P05067 688-770)”: in assay [1], the inhibition of X40 production, αCTF at 0.25 µM was 24%; the inhibition of X40 production, αCTF at 0.5 µM turned out to be 32%; the inhibition of X40 production, αCTF at 1.0 µM was found to be 60%; the suppression of γ-secretase activity for Aβ production from 1 µM βCTF, αCTF at 0.25 µM is 66%. In assay [1], this substance returned a suppression of γ-secretase activity for Aβ production from 1 µM βCTF, αCTF at 0.5 µM of 71% and a suppression of γ-secretase activity for Aβ production from 1 µM βCTF, αCTF at 1.0 µM of 82%.
As for βCTFΔ (Aβ17-23 deleted form of βCTF), in assay [1], the rate of γ-secretase activity for Aβ38 production relative to βCTF (HeLa membrane) was under 10 fold and the secreted Aβ40 from transfected HEK293T cells relative to SPβCTF (ECL) was determined as 10 fold. In assay [2], this substance came in with a reaction rate of γ-secretase, 40-site production, relative to βCTF (mouse brain membrane) of 25 fold and a reaction rate of γ-secretase, 42-site production, relative to βCTF (mouse brain membrane) of 11 fold.
